Laboratory results from a protein production outcome set (Wang et al. 2014).

Test: label from the status in PepcDB records
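Note: failed if final PepcDB status was selected cloned or expressed and not failed if soluble or beyond.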

Sequence	protein production
MQGHHAAARALRRQGRLGEAIARYRAALAATPGAAVLQAEMAECLFAAGQAEAAVKALGQAVRLDPDNATHRGNLAMLLARKGDLAGAIDHARAAVRLAPKDGALRLRLARLLIAAGHPREAEAEALDATRRLPREAASWIALAGARLLDQRPNDAEAPSARALALAPNDAEALSLRTDLLLSLGRLAEAEATARLALKRQPTSLAALVALSKAKTFRPDDPDWPALAALLPSLGERSAEEAVKLHFASAKALEDMGRDDEAFAHYQAGNSLKGRGLPDELPALSAMVDSLERWTPKLRPVGEGDPLPVFIVGMPRSGTTLVEQILDRHRAIHGAGEILLFGERVVANGLGGYSADPQGLDPERLAALGADYRDRLRGLAPRAGRIINKTPGNWLHLGLIAAALPGARIIWCRRDPVDCCLSCFRNLFGQGHAWTTDLGRAGRYYRLQERLTGHWQAVLGDERMTAVDYEALVADPEAEARRLVAHLGLEWDEACLDHTRGGRAVTTLSQVQVRQPITDASVGRGRRFQTHLGPLLTALDGR	failed
MTLDAAPHLHPAVLSPRPQPGRHRRDLHQSSRAFVLLTCIVATLALMLSLPAGLQAAEATVIVPFGGGILRDDAQTVAAAAARIEALRLSTASLGRDSAALFSAETPARLLSLTAATFEAHTTATSVVGYPPEVEVAVNIRTTPRGGDAATALRAALRAPEKLELREGILLHTRENLLEARQLALDAARHRQKAGTESESPYDRRFAALARTLRSLDTLERALSYLDGVWRHPIILAADMRQVVEASPEMPLGWTFLGEALLQLDRPQDAVEALDRALALPDAPVRARLARGIANLRLDLTALAVDDLSRVLREAPRLAPAWRARGAARMMRREYGPMCEDFIQACNLGDCEGLASARDAGHCLAPARPQTVKADD	failed
FTDITERYQHAEALSESERWIRLITDHVPALIAYLNADLVYEFTNKVYEEWYCWPRGVMLGQSLREVHSEQHYQRLESYVERALAGESVTFEFAETNINNQERYMLRSYVPNRLANGEVVGIFVLIRDITERRRTAEALHQAYQNLELRV	failed
MPIITKNTDTTCQTPPLLSIICPAYNQEAFVAQALDGFLSQQTRFNYEILINDDASTDGTARIIAQYAERHPTIIRAFYQQVNQYSQGLPCVPDLFAEARGRYIAYCEADDYWTDPRKLQLQVDFLESHPDYVITYHDAVAFDENGEYGVQLQGHLRADATALELQQARRLSTLTTCFRNVFSTMPPELNIRVAPLNDMCWWSLLGAHGKGKFMADIKPAAYRLHAGGVFSMRSDKRKLHMNLQTCSSLANYYNLQGNQALYEYFLMQTVCLSLAALTPSHKLQTLWQVASNVVVNLGRRLLPTTGKAHVQ	failed
MLRLARKGLQTAVVRSYAKDVKFGAEGRQAMLVGVNLLADAVSVTMGPKGRNVIIEQSWGSPKITKDGVTVAKSIDLKDKYQNLGAKLIQDVANKANEEAGDGTTCATVLARAIAKEGFESIRQGGNAVEIRRGVMNAVEVVVAELKKISKKVTTPEEIAQVATISANGDTVVGNLISDAMKKVGTTGVITVKDGKTLNDELELIEGMKFDRGYISPYFITSAKGAKVEYEKALVLLSEKKISQVQDIVPALELANKLRRPLVIIAEDVDGEALTTLVLNRLKVGLQVVAIKAPGFGDNRKNTLKDMGIATGATIFGDDSNLIKIEDITANDLGEVDEVTITKDDTLLLRGRGDQTEIEKRIEHITDEIEQSTSDYEKEKLNERLAKLSKGVAVLKIGGGSEVEVGEKKDRVTDALCATRAAVEEGIVPGGGVALLRSLTALKNYKAANEDQQIGVNIVKKALTQPIATIVKNAGLEPSSIIDEVTGNSNTSYGYDALNGKFVDMFEAGIIDPTKVVRTALQDASGVASLLATTECVVTEIPKEEAVGGPAGGMGGMGGMGGMGGMGF	not failed
MRPAPSIVEVVAAIIIGSDGSFLLARRPEGKPYAGYWEFPGGKVNPEESLLRALKRELLEELGIHVKHAYPWITRTFTYPHARVRLHFYRVVEWHGEPHPHEDQELSWQFADNVSVEPLLPANAPVLRALALPPVYGITNAAEWGPQIAAARIGHALQKGLRLVQLREKGMRSKALDAFAREVTALAHHYGARILVNSGTGNESLCQELDMDGIHFTSADLMNLSKRPDVEWCAASCHNAEELFRAEQLEMDFAVLAPVLPTLSHPDSPVLGWRKLARIIHGSAIPVYALGGLQSEDLAIAWEHGAHGIALMRRIEQVRGTGQKA	failed
MAIKGPRKHLKRLAAPANWQLPRKVKTFTVRPSPGPHSMDKSLPLLLVVRDVLKYADNAREAKKIIQTGKILIDGLKRKEYKHPAGLMDVLSIPEMDETYLVLFDESGRISLKKTDKTDVKLCKIVNKTVVKGGNIQLNLHDGRNQIVKVSDAAKAEEDVYKTGDSVLISIPEQSIAGHVAFGEGKLAYITGGKHVGEFAKIVEVENRALYSDIVTLENKDGEKFKTVKPYVFIVGQDEPVISMLEHHHHHH	not failed
MPASVMTDLSAAWAAFEAHDYALAERQAQALLAHPATASGARFMLGYVYAFMDRFDEARASFQALQQQAQKSGDHTAEHRALHQVGMVERMAGNWDAARRCFLEERELLASLPEDPLAASANAYEVATVALHFGDLAGARQEYEKSLVYAQQADDQVAIACAFRGLGDLAQQEKNLLEAQQHWLRARDIFAELEDSEAVNELMTRLNGTEG	failed
MTGKKRSASSSRWLQEHFSDKYVQQAQKKGLRSRAWFKLDEIQQSDKLFKPGMTVVDLGAAPGGWSQYVVTQIGGKGRIIACDLLPMDPIVGVDFLQGDFRDELVMKALLERVGDSKVQVVMSDMAPNMSGTPAVDIPRAMYLVELALEMCRDVLAPGGSFVVKVFQGEGFDEYLREIRSLFTKVKVRKPDSSRARSREVYIVATGRKP	not failed
MKLYLILLPVLYLIVSYISIFKMHSVITRILRIVMGILLLFVVALTTLQFPKENWWVFVVLLLLVGNVEVTGFKELKDDKKGVSILNILSLLLFVIFIILIFILY	failed
MLHDWGVIAAALAYIGFLFVVASWGDRLSQGQRERAGGLIYPLSLAIYCTSWTFFGSVGFASRSSFDFLAIYVGPVLVVLVATPLLRRVIRLAKSQNITSIADFIAARYGKSQKVAATVAIIAIIGSVPYIALQLKAVSSSLQTILGDDHNIADIPIVGDIALIVAMAMALFTVLFGTRQASATEHQHGLMLAVATESIVKLVAFLAAGIFVTFWMFSPSALIERAMQMPEAVRALDSTSPANFLTMTALSFCAFMMLPRQFHVSVVENSNEAEVGRARWLFPLYLVAINLFVIPIALAGLVKFPFGKVDSDMYVLALPIDADAPMLSVAVFIGGLSAATAMVIVECVALAVMVSNDLVMPLVLKRHGAPRPDEQRNFGRFLLTVRRVAIFAILILAYLYYRALGNTQLAAIGLLSFAAIAQFAPSFFGGLIWRRATARGAIGGLLVGFAVWAYTLFIPSFMENSTTGLLLLQHGPWGIEALRPQALFGSDLPPLLHGVLWSLSLNLIAYILLSLLRQPSSIERLQAEVFVPDALTPMTPAFRRWRTTVTVQDIVGAVSQYLGPERARDSFRSFAAGRRITLDPAAPADFELLKHAEHLIASSIGAASSRLVLSLLLRKRTVSAEAALKLLDDSHAALHFNREILQTALNHVRQGIAVFNPELQLICSNRQFGEILGLPPHIIQIGIPLIEILEFLASNSIAPIDAEAHTQMRMAAYTTEGEPFIERFPDRHLVVEVRANRMPDGGLVITFSDVTPSFEAAEALERANATLERRVRERTEELTRLNSQLALAKSTAEEANISKTRFLAAASHDILQPLNAARLYATSLVERQNGGEDSRLVENIDESLQAIEEIIGALLDISRLDAGAMTPSLSNFVIGDLMRSLEIEFSPTARAKGLELTFVPCSLPVQSDRLMLRRLMQNLISNAIKYTPQGRVLVGCRRQGQSLRIGIYDTGVGVPILKRGEIFKEFHRLEQGARIARGLGLGLSIVERLARVLNHGIALDSNRGGGSCFSVTVPVAEAVNHTAAVTSATPLSRASMSGILVVCIENDPAILDGMKTLLTTWDAKVIAVADPEAAIRAIESSEQRVTGLLVDYHLDRGNGIAAIREIRARFGQSIPAILITADRSPGVRASARQEEIAVLNKPVKAASLRALLSQWHAQQSVVAAE	failed
MTCANCATDVIYMAERQNERDDRQKLKNISFAKKILLGLSMYVPSSTFKKIVLKLLGAHIGKNVYFGPGSLVLSNDYSSVYIENNVFVAPGVLINVNNFTVGENSHLGYQCLMVGESLKIGSRCNISNRTFIECSYSPILIEDDVTIGGCAMVSTHDGSYRQVYGLEMKAAPIYIRSKAFIGNNAIILPGIEIGRKVIVGAGAVVTKNAVANSVICGVPADKIRTMEVSNENITGN	failed
MRGWICVKLTKLNIKKYRAPIYKYALANVNLRSAKSTNSSIITVIPQGAKMEVLDEEDDWIKVMYNSQEGYVYKDLVSVSEYAWSNLNLREDKSTTSNIITVIPEKSRVEVLQVDGDWSKVVYDDKIGYVFNYFLSIDGNKPNELDYKYFYTDMIKFVNENNIKSTSDYLIVTDLRNKYTYIFKKDNGGWGQLYKWQCTIGKPETPTITGIFYISGRKPSFGTDEYSVKYATRIKGGYYYHSVLYDSTGSYIIDGRLGEALSHGCIRLSTENAKWIYDNIPDTTTVIIH	failed
MALLKWIPARGTLPLSPKWVATTLADASPDSVPVLFLHGTLGSPGNFERPAQRLAQLGRPFFAPAYGEHGTADLDRSTAELLRYVDHLRDMGIKQVDIVGHSAGGLQGLRIAHARPGFVRKLIGLGAAFRGVPRTVRFKPVVKLITGQAVIQLTQEIPAELPDGVELVSIYSTADHIVPVASSTLGELIEITDIRHEDLPRQADVIMEALGYPAETDSPTD	failed
HFPINTLLLMRATTGVQLRLPERFGEFLDCLFRALWVDKRNLNDPATITQVLEQGGFDPQQILDLSNDEEVKAALKDKTEQALQKGVFGAPSMFVGDELFFGQDRLDFVREALNA	failed
MTPNEDLIEIFEDEEISPSLTAKTWPILIVDDDQDVHDVSRLALRGVRLLDYDLETLHAYSAAQARAILSSRSDIAVALLDVVMEREDAGLDLVRWIRSDPARDLLRIVLRTGQPGYAPEATVIQDYDINDYRTKSELNRGRLISILTTALRSYRQMAVIAASRDGLDKIVRASADLLASPSMAIFAEGVLTQLAGLLGTERSGIVLARRNRRPGATASMAMTGDEGFVLAAAGPLSADIGRPLSDIGDHQTAEILRRTLESRRSSFDHGSMALYIATPNGDSLAVLMEVAKTLGDTDRKLVEVFCVNMAAGFDTISLFEQISLQAFHDEATGLPNLAACQSLIDQYLQRRQPVAVTFFSLEGFSAISDTLGRVIGDRMIGLLANAFRHRLQERGEVFRVGQETLATVIGGPVDQVGPLADQLAGDFRAGLPLDSMTLPVSFSHGTSVSTSEHDTAQILVQRAGIAMQKARNIKRGGGLTYAVAMEEEIRAHIGVISKLGAGVVSEAFVAVFQPKIRLADRSCHGGEALVRWRDGDGTMIAPSLFIPAAETSGHIVDIGYSVFRQSCAMIRSLKVSQDDARIAVNLSVRQMREPDLIDKLVSIAAEEGVATTRLKLEITESIVIDDLTHTVSLLKALKDKGFLLALDDFGTGYSSLSYLRSLPIDTLKIDRSFVSGLAEQADMRKIVGLIIGLGHELGFDITAEGVETEEEARIVTEMGCFTAQGYLFSKPLSAEDFLVFARTHAGARQTSGGSLSAEGCIRARDA	failed
MINEQRLLNTFLELVQIDSETGNESTIQPILKEKFIALGLDVKEDEAAKHPKLGANNLVCTMNSTIEEGEVPKLYLTSHMDTVVPAINVKPIVKDDGYIYSDGTTILGADDKAGLAAMLEVLQVIKEQQIPHGQIQFVITVGEESGLIGAKELNSELLDADFGYAIDASADVGTTVVGAPTQMLISAKIIGKTAHASTPKEGVSAINIAAKAISRMKLGQVDEITTANIGKFHGGSATNIVADEVILEAEARSHDPERIKTQVKHMTDVFETTASELGGKAEVTVEQSYPGFKINDNEAVVKIAQESARNLGLSANTIISGGGSDGSIINTFGIPSVILGVGYEKIHTTNERMPIKSLNLLASQVLEIIKIVARQSK	not failed
